{
  "source": "paper PMC6058493",
  "key": {"[1]": {"biological_target": "prostate-specific membrane antigen (PSMA) (UniProt Q04609)", "sequence (Q04609 whole entry)": "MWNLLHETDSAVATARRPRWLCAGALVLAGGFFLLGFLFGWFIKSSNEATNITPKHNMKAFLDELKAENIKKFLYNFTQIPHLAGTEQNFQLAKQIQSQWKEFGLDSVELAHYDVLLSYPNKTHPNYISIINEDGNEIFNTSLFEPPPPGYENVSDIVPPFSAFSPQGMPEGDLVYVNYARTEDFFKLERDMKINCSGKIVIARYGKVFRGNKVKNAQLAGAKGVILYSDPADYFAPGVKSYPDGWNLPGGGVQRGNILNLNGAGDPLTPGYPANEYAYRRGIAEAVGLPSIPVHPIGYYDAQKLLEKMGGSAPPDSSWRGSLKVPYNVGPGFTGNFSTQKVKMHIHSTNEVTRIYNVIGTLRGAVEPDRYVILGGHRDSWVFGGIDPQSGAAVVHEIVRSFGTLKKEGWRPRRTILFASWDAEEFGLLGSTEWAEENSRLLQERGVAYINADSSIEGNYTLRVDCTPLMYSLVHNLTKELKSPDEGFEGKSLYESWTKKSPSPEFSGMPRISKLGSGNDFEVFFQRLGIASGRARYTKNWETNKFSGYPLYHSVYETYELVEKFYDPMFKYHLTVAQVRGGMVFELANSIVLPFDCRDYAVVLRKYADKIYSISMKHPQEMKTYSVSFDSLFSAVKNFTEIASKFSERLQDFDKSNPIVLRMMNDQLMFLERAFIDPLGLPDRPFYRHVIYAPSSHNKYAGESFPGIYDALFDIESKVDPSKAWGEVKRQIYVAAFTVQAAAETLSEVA", "experiment": "competition (flow cytometry, confocal microscopy)", "settings": "2'-fluoro pyrimidines; 3'-spacer-NH2 as purchased; cells incubated 30 min at room temperature, washed 3x with PBS; buffer, salt and pH of incubation not stated; scale: % cells bound by aptamer nanobubbles with excess free aptamer"}, "[2]": {"biological_target": "prostate-specific membrane antigen (PSMA) (UniProt Q04609)", "experiment": "flow cytometry and confocal microscopy on LNCaP cells", "settings": "2'-fluoro pyrimidines; 3'-spacer-NH2; cells incubated 30 min at room temperature, washed 3x with PBS; buffer, salt and pH of incubation not stated"}},
  "data": [
    {"sequence": "GGGAGGACGAUGCGGAUCAGCCAUGUUUACGUCACUCCU [A10-3.2 aptamer (free competitor)]", "values": [
      {"measurement": "binding signal", "setting": "[1]", "value": 4.07}
    ]},
    {"sequence": "GGGAGGACGAUGCGGAUCAGCCAUGUUUACGUCACUCCU [A10-3.2 aptamer on siFoxM1-Apt-CNBs]", "values": [
      {"measurement": "binding signal (% cells bound)", "setting": "[2]", "value": 82.4}
    ]}
  ]
}
